Source: patent US20250320303A1 (SHENGHE CHINA BIOPHARMACEUTICAL, published 2025)
Substitutions are numbered along the chain they refer to.

T1: human W3785-hProl.ECD.His (Human-TNFR2-His) protein (human, UniProt P20333 23-257)
T1 construct: extracellular domain; not shown: His tag
T1 sequence (looked up): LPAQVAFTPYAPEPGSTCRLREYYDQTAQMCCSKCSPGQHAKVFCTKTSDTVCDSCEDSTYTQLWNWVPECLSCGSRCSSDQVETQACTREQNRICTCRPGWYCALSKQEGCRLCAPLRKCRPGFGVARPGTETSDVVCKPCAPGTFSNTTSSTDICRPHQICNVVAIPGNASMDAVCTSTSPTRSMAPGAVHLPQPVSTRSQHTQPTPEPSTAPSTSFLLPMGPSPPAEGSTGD

B1: Antibody 21 (antibody, V domains shown)
VH: EVQLVESGGGLVKPGGSLRLSCAASGFTFSNAWMGWVRQAPEKGLEWVGQIKDKSNNYPTYYAESVKGRFTISRDDSKNTLYLQMNSLKTEDTAVYYCTTYGDFFDYWGQGTLVTVSS
VL: DIQMTQSPSSLSASVGDRVTITCRASEDIYNALAWYQQKPGKVPKLLLYNANSLHTGVPSRFSGSGSGTDYTLTISSLQPEDFATYFCQQYYDHPLTFGQGTKLEIK
notes: detected with anti-human IgG and captured on AHC sensors
B2: Antibody 22 (antibody, V domains shown)
VH: B1 VH
VL: B1 VL with N31Q, A32G
notes: as for B1
B3: Antibody 12 (antibody, V domains shown)
VH: QVQLVQSGAEVKKPGASVKVSCKASGYTFTDYIIHWVRQAPGQGLEWMGWIDPDYGNTDYADKFKKRVTMTADTSISTAFMELSRLRSDDTAVYYCARDDGSPLVMDAWGQGTLVTVSS
VL: DIQMTQSPSSLSASVGDRVTITCQGSQNIDNYLAWFQQKPGKAPKLLIYSTYSLQTGVPSRFSGSRSGTDFTLTISSLQPEDFATYFCFQYNNGYMFGGGTKLELK
notes: as for B1
B4: Antibody 13 (antibody, V domains shown)
VH: B3 VH
VL: B3 VL with Q24N, S26A
notes: as for B1
B5: Antibody 16 (antibody, V domains shown)
VH: B3 VH with D100E
VL: B3 VL with Q24N
notes: as for B1
B6: Antibody 15 (antibody, V domains shown)
VH: B3 VH with G101A
VL: B3 VL
notes: as for B1
B7: Antibody 14 (antibody, V domains shown)
VH: B3 VH with G101A
VL: B3 VL with Q24N
notes: as for B1
B8: Antibody 17 (antibody, V domains shown)
VH: B3 VH with D100E
VL: B3 VL
notes: as for B1
B9: Antibody 19 (antibody, V domains shown)
VH: B3 VH with G101A
VL: B3 VL with N93Q
notes: captured on AHC sensors
B10: Antibody 18 (antibody, V domains shown)
VH: B3 VH
VL: B3 VL with N93Q
notes: captured on AHC sensors
B11: Antibody 23 (antibody, V domains shown)
VH: EVQLVQSGAEVKKPGATVKISCKVSGYSITDYLLHWVQQAPGKGLEWMGWIDPEEGKTKYGQKFQSRVTITADTSTDTAYMELSSLRSEDTAVYYCAANSGTGTMDAWGQGTLVTVSS
VL: DIVMTQSPATLSVSPGERATLSCKASQNVGSNVDWYQQKPGQSPRVLIYKASIRYTGIPARFSGSGSGTEFTLTISILQSEDFAVYFCMQSKSYPITFGQGTKLEIK
notes: captured on AHC sensors
B12: Antibody 27 (antibody, V domains shown)
VH: B11 VH with E55D, G56A, N99Q
VL: B11 VL
notes: captured on AHC sensors
B13: Antibody 28 (antibody, V domains shown)
VH: B11 VH with E55D, G56A, G101A
VL: B11 VL
notes: captured on AHC sensors
B14: Antibody 26 (antibody, V domains shown)
VH: B11 VH with G101A
VL: B11 VL
notes: captured on AHC sensors
B15: Antibody 24 (antibody, V domains shown)
VH: B11 VH with E55D, G56A
VL: B11 VL
notes: captured on AHC sensors
B16: Antibody 25 (antibody, V domains shown)
VH: B11 VH with N99Q
VL: B11 VL
notes: captured on AHC sensors

Each binder was assayed against T1, human W3785-hProl.ECD.His … (assay: indirect ELISA on coated Human-TNFR2-His).
Method: (1) Coating: Human-TNFR2-His was diluted to 0.5 μg/mL with coating solution (1×PBS, pH 7.4), and coated into a 96-well ELISA plate at 100 μL/well at 4° C. overnight. The coating solution was poured off, and the plate was washed with 1×PBST at 300 μL per well, washed with a plate cleaning instrument for 4 times, and patted dry on sheet paper. [0184] (2) Blocking: it was blocked with 3% non-fat dry milk at 300 μL/well, and incubated at 37° C. for 1 h. The blocking solution was poured off, washed by a plate cleaning instrument for 4 times, and patted dry on sheet paper. [0185] (3) Sample dilution: the reference product and the test product were diluted with 3% non-fat dry milk to 10 μg/mL, and this was used as the initial concentration for 3-fold dilution with a total of 11 gradients of dilution, and another one blank well was set up, and only diluent was added. It was incubated at 100 μL/well at 37° C. for 1 h. Liquid in the wells was discarded, washed by a plate cleaning instrument for 4 times, and patted dry on the sheet paper. [0186] (4) Addition of enzyme-labeled secondary antibody: Peroxidase-conjugated AffiniPure F(ab′)2 Fragment Goat Anti-Human IgG was diluted with 3% non-fat dry milk at 1:20,000. It was incubated at 100 μL/well at 37° C. for 1 h. It was washed by a plate cleaning instrument for 6 times and patted dry on sheet paper. […] (5) Color development: TMB color development solution was added at 100 μL/well and wrapped with aluminium foil, and the color was developed at 37° C. without light for 8 min. [0188] (6) Termination of color development: terminal solution 1 M HCl was added to terminate the color development reaction at 100 μL/well. [0189] (7) Reading at 450 nm on the enzyme labeler. [0190]

Binder | EC50
B1 | 0.0147 µg/mL
B2 | 0.0137 µg/mL
B3 | 0.0135 µg/mL
B4 | 0.00496 µg/mL
B5 | 0.0203 µg/mL
B6 | 0.0032 µg/mL
B7 | 0.00375 µg/mL
B8 | 0.0149 µg/mL

The binders below were run against T1, human W3785-hProl.ECD.His … (assay: BLI (Octet Red96e), antibody on AHC sensor, Human-TNFR2-His in solution, multiple concentrations).

Binder | Kd | koff | kon
B1 | 0.177 nM | 0.000145 s⁻¹ | 821000 M⁻¹ s⁻¹
B2 | 0.33 nM | 0.000165 s⁻¹ | 500000 M⁻¹ s⁻¹
B3 | 0.0863 nM | 0.000102 s⁻¹ | 1.21e+06 M⁻¹ s⁻¹
B4 | 0.117 nM | 0.000134 s⁻¹ | 1.15e+06 M⁻¹ s⁻¹
B9 | 1.48 nM | 0.00127 s⁻¹ | 862000 M⁻¹ s⁻¹
B5 | 0.117 nM | 0.000134 s⁻¹ | 1.15e+06 M⁻¹ s⁻¹
B10 | 0.0638 nM | 6.22e-05 s⁻¹ | 974000 M⁻¹ s⁻¹
B6 | 2.06 nM | – | –
B7 | 3.03 nM | 0.00282 s⁻¹ | 931000 M⁻¹ s⁻¹
B8 | 0.133 nM | 0.000124 s⁻¹ | 933000 M⁻¹ s⁻¹
B11 | 0.766 nM | 0.000371 s⁻¹ | 484000 M⁻¹ s⁻¹
B12 | 0.537 nM | 0.00077 s⁻¹ | 1.44e+06 M⁻¹ s⁻¹
B13 | < 0.001 nM | < 1e-07 s⁻¹ | 225000 M⁻¹ s⁻¹
B14 | 0.0551 nM | 1.41e-05 s⁻¹ | 256000 M⁻¹ s⁻¹
B15 | 0.152 nM | 0.000109 s⁻¹ | 718000 M⁻¹ s⁻¹
B16 | 1.39 nM | 0.00193 s⁻¹ | 1.39e+06 M⁻¹ s⁻¹
